From patent US20240173426A1 (Regeneron, published 2024)

T1: human FGFR3b expressed with a C-terminal myc-myc-hexahistidine tag (hFGFR3b.mmH) (human)
T1 construct: monomeric; also called REGN3152; monomeric human FGFR3b
T1 chain: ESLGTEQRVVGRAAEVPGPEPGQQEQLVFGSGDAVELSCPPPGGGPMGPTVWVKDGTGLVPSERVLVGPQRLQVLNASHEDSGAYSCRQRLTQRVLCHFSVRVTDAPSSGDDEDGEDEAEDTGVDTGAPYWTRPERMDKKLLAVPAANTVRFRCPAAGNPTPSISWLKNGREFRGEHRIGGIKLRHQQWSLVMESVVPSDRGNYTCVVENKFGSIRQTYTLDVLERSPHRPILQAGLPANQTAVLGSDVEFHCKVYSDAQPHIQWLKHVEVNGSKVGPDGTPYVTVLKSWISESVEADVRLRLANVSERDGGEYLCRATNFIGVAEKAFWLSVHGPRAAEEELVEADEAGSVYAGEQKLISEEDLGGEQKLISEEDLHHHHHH

T2: murine FGFR3b expressed with a C-terminal myc-myc-hexahistidine tag (mFGFR3b.mmH) (mouse)
T2 construct: monomeric; also called REGN3215; monomeric murine FGFR3b
T2 chain: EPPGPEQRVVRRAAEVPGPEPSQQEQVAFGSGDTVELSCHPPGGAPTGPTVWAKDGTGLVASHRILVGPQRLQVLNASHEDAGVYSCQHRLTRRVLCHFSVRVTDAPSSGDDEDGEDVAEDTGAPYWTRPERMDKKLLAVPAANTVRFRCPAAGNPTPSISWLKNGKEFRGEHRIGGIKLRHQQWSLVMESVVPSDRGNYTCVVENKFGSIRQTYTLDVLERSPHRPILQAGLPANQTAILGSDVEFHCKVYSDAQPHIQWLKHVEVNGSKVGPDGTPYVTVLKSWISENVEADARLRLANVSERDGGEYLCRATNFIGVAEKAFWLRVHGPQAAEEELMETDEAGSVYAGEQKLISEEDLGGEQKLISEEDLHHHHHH

B1: H4H30093P2 (antibody, human IgG4 S228P, kappa, V domains shown)
VH: QVQLVESGGGLVKPGGSLRLSCAASGFTFNDYPMSWIRQAPGKGLEWVSYITSSSGSTIYYADSVKGRFTISRDNAKNSLYLQMNSLRAEDTAVYYCAREVVVATIGGYYGMDVWGQGTTVTVSS
VL: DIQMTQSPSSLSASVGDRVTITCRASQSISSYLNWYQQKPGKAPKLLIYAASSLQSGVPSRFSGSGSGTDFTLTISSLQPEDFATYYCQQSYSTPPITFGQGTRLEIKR
B2: human FGFR3b expressed with a C-terminal murine Fc tag (hFGFR3b.mFc) (Fc fusion)
chain: ESLGTEQRVVGRAAEVPGPEPGQQEQLVFGSGDAVELSCPPPGGGPMGPTVWVKDGTGLVPSERVLVGPQRLQVLNASHEDSGAYSCRQRLTQRVLCHFSVRVTDAPSSGDDEDGEDEAEDTGVDTGAPYWTRPERMDKKLLAVPAANTVRFRCPAAGNPTPSISWLKNGREFRGEHRIGGIKLRHQQWSLVMESVVPSDRGNYTCVVENKFGSIRQTYTLDVLERSPHRPILQAGLPANQTAVLGSDVEFHCKVYSDAQPHIQWLKHVEVNGSKVGPDGTPYVTVLKSWISESVEADVRLRLANVSERDGGEYLCRATNFIGVAEKAFWLSVHGPRAAEEELVEADEAGSVYAGEPRGPTIKPCPPCKCPAPNLLGGPSVFIFPPKIKDVLMISLSPIVTCVVVDVSEDDPDVQISWFVNNVEVHTAQTQTHREDYNSTLRVVSALPIQHQDWMSGKEFKCKVNNKDLPAPIERTISKPKGSVRAPQVYVLPPPEEEMTKKQVTLTCMVTDFMPEDIYVEWTNNGKTELNYKNTEPVLDSDGSYFMYSKLRVEKKNWVERNSYSCSVVHEGLHNHHTTKSFSRTPGK
notes: called dimeric; also called REGN3153; dimeric human FGFR3b
B3: hFGFR3c-hFc (Fc fusion, human, UniProt P22607 23-375, looked up)
chain: ESLGTEQRVVGRAAEVPGPEPGQQEQLVFGSGDAVELSCPPPGGGPMGPTVWVKDGTGLVPSERVLVGPQRLQVLNASHEDSGAYSCRQRLTQRVLCHFSVRVTDAPSSGDDEDGEDEAEDTGVDTGAPYWTRPERMDKKLLAVPAANTVRFRCPAAGNPTPSISWLKNGREFRGEHRIGGIKLRHQQWSLVMESVVPSDRGNYTCVVENKFGSIRQTYTLDVLERSPHRPILQAGLPANQTAVLGSDVEFHCKVYSDAQPHIQWLKHVEVNGSKVGPDGTPYVTVLKTAGANTTDKELEVLSLHNVTFEDAGEYTCLAGNSIGFSHHSAWLVVLPAEEELVEADEAGSVYAG
notes: range 23-375; Bought (R&D Systems); also called human FGFR3c extracellular domain with human IgG1 Fc; R&D Systems 766-FR-050; not shown: Fc portion of human IgG1 at the C-terminus, amino acids Pro100-Lys330

Tests used:
[1] = biological target: T1, human FGFR3b expressed with a …; test: SPR (Biacore), captured mAb, 25 C
Method: (§1) The CM5 Biacore sensor surface was derivatized by amine coupling with a monoclonal mouse anti-human Fc monoclonal antibody (REGN2567). All Biacore binding studies were performed in a buffer composed of 0.01M HEPES pH 7.4, 0.15 M NaCl, 3 mM EDTA, 0.05% v/v Surfactant P20 (HBS-EP running buffer). […] Antibody-reagent association was monitored for 5 minutes while dissociation in HBS-EP running buffer was monitored for 10 minutes. At the end of each cycle, the anti-FGFR3 antibody capture surface was regenerated using a 10 sec injection of 20 mM phosphoric acid. All binding kinetics experiments were performed at 25° C.
(§2) The specific SPR-Biacore sensorgrams were obtained by a double referencing procedure. The double referencing was performed by first subtracting the signal of each injection over a reference surface (anti-hFc) from the signal over the experimental surface (anti-hFc-captured anti-FGFR3 antibodies) thereby removing contributions from refractive index changes. In addition, running buffer injections were performed to allow subtraction of the signal changes resulting from the dissociation of captured antibodies from the coupled anti-hFc surface. Kinetic association (kₐ) and dissociation (kd) rate constants were determined by fitting the real-time sensorgrams to a 1:1 binding model using Scrubber v2.0c curve fitting software.

[2] = biological target: T2, murine FGFR3b expressed with a …; test: SPR (Biacore), captured mAb, 25 C
Method: as §1, §2

[3] = biological target: T3, human FGFR3c expressed with a C-terminal myc-myc-hexahistidine tag (hFGFR3c.mmH) (human, UniProt P22607 23-375); test: SPR (Biacore), captured mAb, 25 C
T3 construct: monomeric; also called REGN3155; monomeric human FGFR3c
Method: as §1, §2

[4] = biological target: B2; test: SPR (Biacore), captured mAb, 25 C
Method: as §1, §2

[5] = biological target: T1, human FGFR3b expressed with a …; test: SPR (Biacore), recombinant human FGFR3 protein
[6] = biological target: T4, human fibroblast growth factor acidic (hFGF acidic) (human, UniProt P05230 2-155, limits assumed); test: ELISA, receptor-Fc on plate-coated hFGF acidic with heparin; fixed concentration said to be chosen near the EC50 of this binding
T4 construct: Bought; coated on the plate with heparin; also called FGF1 acidic

[7] = biological target: T5, human fibroblast growth factor basic (hFGF basic) (human, UniProt P09038 144-288); test: ELISA, receptor-Fc on plate-coated hFGF basic with heparin; fixed concentration said to be chosen near the EC50 of this binding
T5 construct: Bought; also called Biolegend 571508
T5 sequence (P09038 144-288, form in doubt): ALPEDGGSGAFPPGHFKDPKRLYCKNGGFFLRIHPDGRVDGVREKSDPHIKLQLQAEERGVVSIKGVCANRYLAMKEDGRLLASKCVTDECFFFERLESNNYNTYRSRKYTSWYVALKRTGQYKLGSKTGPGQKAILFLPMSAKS

T4 sequence (P05230 2-155 limits assumed, form in doubt): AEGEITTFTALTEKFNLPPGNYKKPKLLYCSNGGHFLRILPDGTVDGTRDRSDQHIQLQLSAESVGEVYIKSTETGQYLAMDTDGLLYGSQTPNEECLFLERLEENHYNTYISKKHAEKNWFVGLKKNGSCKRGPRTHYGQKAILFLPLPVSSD

With B1 the t½ [1] was 5.5 min, the t½ [2] was 1.2 min and the t½ [3] was 3.5 min. For the same binder, the t½ [4] was 745 min and the Kd [5] was 9.06 nM.

Work on B2 yielded an EC50 [6] of roughly 4 nM.

Binder B3 has an EC50 [7] of roughly 7 nM and an EC50 [6] of roughly 0.4 nM.
